Substitutions are numbered along the chain they refer to. Names may count otherwise.
Tests used:
FleR 1-473 [1] = target: FleR 1-473 (UniProt Q9I4N3); test: dynamic light scattering; conditions: reference: wild type FleRFL, acetyl phosphate treated; sites D53
FleR 1-473 [2] = target: FleR 1-473 (UniProt Q9I4N3); test: small-angle X-ray scattering; conditions: reference: non-phosphorylated FleR D53A; sites D53
cross-linking = target: the molecule itself; test: cross-linking
SAXS = target: the molecule itself; test: SAXS

Molecule: FleR 1-473 (from UniProt Q9I4N3) FleR D53A, acetyl phosphate treated
- other: hydrodynamic diameter (FleR 1-473 [1]): weaker; reference 23.17 ± 0.58

Molecule: FleR 1-473 (from UniProt Q9I4N3) acetyl phosphate-phosphorylated FleR S150F
- other: SAXS molecular mass (Bayesian inference) (FleR 1-473 [2]): stronger; reference 113650

B1: DNA-binding domain of FleR (FleRDBD, residues 412-473) (domain or fragment, Pseudomonas aeruginosa (PAO1 strain), UniProt Q9I4N3 412-473, looked up)
chain: SGALGDDLRRREFQVIIDTLRTERGRRKEAAERLGISPRTLRYKLAQMRDAGMDVEAYLYAI
- stoichiometry N (cross-linking): 2

B2: FleR D53A, non-phosphorylated, full length (natural protein, Pseudomonas aeruginosa (PAO1 strain), UniProt Q9I4N3 1-473, looked up)
chain: MAAKVLLVEDDRALREALSDTLLLGGHEFVAVDSAEAALPVLAREAFSLVISAVNMPGMDGHQLLGLIRTRYPHLPVLLMTAYGAVDRAVEAMRQGAADYLVKPFEARALLDLVARHALGQLPGSEEDGPVALEPASRQLLELAARVARSDSTVLISGESGTGKEVLANYIHQQSPRAGKPFIAINCAAIPDNMLEATLFGHEKGSFTGAIAAQPGKFELADGGTILLDEISEMPLGLQAKLLRVLQEREVERVGARKPINLDIRVLATTNRDLAAEVAAGRFREDLYYRLSVFPLAWRPLRERPADILPLAERLLRKHSRKMNLGAVALGPEAAQCLVRHAWPGNVRELDNAIQRALILQQGGLIQPADLCLTAPIGMPLAAPVPVPMPAMPPATPPSVEIPSPAAGQDASGALGDDLRRREFQVIIDTLRTERGRRKEAAERLGISPRTLRYKLAQMRDAGMDVEAYLYAI
- stoichiometry N (SAXS): 2

B3: FleR S150F, full length, phosphorylated with acetyl phosphate (natural protein, Pseudomonas aeruginosa (PAO1 strain), UniProt Q9I4N3 1-473, looked up)
chain: B2 chain with A53D, S150F
modifications: phosphorylated by acetyl phosphate (site D53)
- stoichiometry N (SAXS): 7

Reference: publication PMC10696123 (iScience, 2023)
